Experimental data from the supplement of paper PMC11908140.

B1: library; numbered along this chain (parent)
chain: MRKPRAAVGSGHRKQAASQEGRQKHAKNNSQAKPSACDGLARQPEEVVLQASVSSYHLFRDVAEVTAFRGSLLSWYDQEKRDLPWRRRAEDEMDLDRRAYAVWVSEVMLQQTQVATVINYYTGWMQKWPTLQDLASASLEEVNQLWAGLGYYSRGRRLQEGARKVVEELGGHMPRTAETLQQLLPGVGRYTAGAIASIAFGQATGVVDGNVARVLCRVRAIGADPSSTLVSQQLWGLAQQLVDPARPGDFNQAAMELGATVCTPQRPLCSQCPVESLCRARQRVEQEQLLASGSLSGSPDVEECAPNTGQCHLCLPPSEPWDQTLGVVNFPRKASRKPPREESSATCVLEQPGALGAQILLVQRPNSGLLAGLWEFPSVTWEPSEQLQRKALLQELQRWAGPLPATHLRHLGEVVHTFSHIKLTYQVYGLALEGQTPVTTVPPGARWLTQEEFHTAAVSTAMKKVFRVYQGQQPGTCMGSKRSQVSSPCSRKKPRMGQQVLDNFFRSHISTDAHSLNSAAQ

Variants of: B1
Test: 8OG:A repair function score (normalized; synonymous = 0, nonsense = -1) (normalized log-likelihood score); higher = more repair activity (WT-like)
Settings: with 8OG:A DNA repair reporter (GFP) in HEK-293 MUTYH KO cells
Description: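 Saturation mutagenesis (NNN codon scan) of the MUTYH cDNA (521-aa nuclear isoform NM_001048174.1 / NP_001041639), stably expressed under doxycycline induction in HEK-293 MUTYH knockout cells. Cells were co-transfected with an 8OG:A-bearing GFP repair reporter plus mCherry and sorted 72 h later into GFP+ and GFP− bins, three replicates per tile. The Rosace log2 enrichment (GFP+ vs GFP−) was converted per tile to a normalized function score with synonymous variants centered at 0 and nonsense variants (codons 1-471) at -1; low-abundance variants were removed.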

8OG:A repair function score: each site, then its substitutions
L145: E -0.0292, M 0.00629, K 0.0459, G 0.0263, I -0.102
L139: Y -0.0177, V 0.0777, C -0.0786, G -0.00666, I 0.139, Q -0.0666, D -0.831, R -0.0247, T 0.00391, A -0.241, W -0.0565, H 0.1, K -0.511, M -0.053, N 0.213, F -0.0535, S -0.0783, E -0.17, P 0.0573
Q144: V -0.0203, I 0.051, L -0.000148, H -0.0216, Y -0.286, P -0.282, M 0.0906, F -0.198, N -0.299, A -0.134, G -0.106, R 0.0872, E -0.0907, C -0.0295, T -0.0237, D -0.5, S 0.0476, K -7.85e-05, W -0.282
N143: Y 0.0152, K -0.343, V -0.199, H -0.621, G -0.139, Q -0.222, D -0.456, W -0.253, P -0.4, E -0.196, T -0.286, L -0.0917, F -0.0267, M 0.113, A -0.35, S -0.133, I -0.0751, C -0.216, R -0.181
A137: C -0.261, L -1.02, H -0.568, Y -0.928, P -0.869, W -1.02, V -0.325, R -0.54, S -0.0075, F -0.738, N -0.267, E -0.16, M -0.417, T -0.295, D -0.219, Q -0.0812, K -0.626, G -0.176, I -0.286
S136: W -0.154, V 0.077, Y 0.0366
